From US20140005241 (The Curators of the University of Missouri, published 2014)

Biological target: SARS-CoV nsp13 helicase (SARS coronavirus, UniProt P0C6X7 P0C6X7:5302-5902)
Experiment: EMSA
Conditions: tags: GST (baculovirus) or His6; label: 5'-Cy3; 20 nt 5' overhang, 40 bp duplex

B1: 60/40-mer (20ss:40ds) DNA (dsDNA)
DNA 1: TAGATAGCATTAGATAGCCACAGATAGCATCCTAGATAGCATTGGTGCTCGAACAGTGAC
DNA 2: GTCACTGTTCGAGCACCAATGCTATCTAGGATGCTATCTG
binding result: binds
